Test results reported in US20100093980A1 (Biogen, published 2010).
Positions count from the first letter of the chain named.

B1: Chimeric HP1/2 Fab (murine VH and VL domains) (Fab, V domains shown)
VH: EVQLQQSGAELVKPGASVKLSCTASGFNIKDTYMHWVKQRPEQGLEWIGRIDPASGDTKYDPKFQVKATITADTSSNTAWLQLSSLTSEDTAVYYCADGMWVSTGYALDFWGQGTTVTVSS
VL: SIVMTQTPKFLLVSAGDRVTITCKASQSVTNDVAWYQQKPGQSPKLLIYYASNRYTGVPDRFTGSGYGTDFTFTISTVQAEDLAVYFCQQDYSSPYTFGGGTKLEIK
notes: Fab fragment; Constant parts (CH1, CL) are not specified; detection was with goat anti-human IgG HRP conjugate; also called chimeric Fab
B2: Humanized HP1/2 Fab V24A_T32V (Fab, V domains shown)
VH: EVQLVQSGAEVKKPGATVKISCKASGFNIKDVYMHWVQQAPGKGLEWMGRIDPASGDTKYDPKFQVRVTITADTSTDTAYMELSSLRSEDTAVYYCATGMWVSTGYALDFWGQGTLVTVSS
VL: DIVMTQSPDSLAVSLGERATINCKASQSVTNDVAWYQQKPGQPPKLLIYYASNRYTGVPDRFSGSGSGTDFTLTISSLQAEDVAVYYCQQDYSSPYTFGQGTKVEIK
notes: Fab fragment; Constant parts are not specified
B3: Humanized HP1/2 Fab F27Y_T32V_M96L (VH SEQ ID NO: 25) (Fab, V domains shown)
VH: B2 VH with A24V, F27K, M100L
VL: B2 VL
notes: as for B2
B4: HP1/2 Fab, straight CDR graft (VH CDR graft paired with VL CDR graft) (Fab, V domains shown)
VH: B2 VH with A24V, V32T
VL: B2 VL
notes: as for B2
B5: Humanized HP1/2 Fab V24S_F27Y_T32V (Fab, V domains shown)
VH: B2 VH with A24S, F27Y
VL: B2 VL
notes: as for B2
B6: Humanized HP1/2 Fab V24F_T32V (Fab, V domains shown)
VH: B2 VH with A24F
VL: B2 VL
notes: as for B2

These binders were tested against T1, purified α4β1 VLA4 integrin (UniProt P13612 34-1032; P05556 21-798) (assay: ELISA, Fab on plate-coated purified VLA4, goat anti-human IgG HRP detection).
T1 construct: Purified VLA4 coated on the plate at 1 ug/ml; also called α4β1 integrin
T1 sequence (P13612 34-1032, form in doubt, chain 1 of 2): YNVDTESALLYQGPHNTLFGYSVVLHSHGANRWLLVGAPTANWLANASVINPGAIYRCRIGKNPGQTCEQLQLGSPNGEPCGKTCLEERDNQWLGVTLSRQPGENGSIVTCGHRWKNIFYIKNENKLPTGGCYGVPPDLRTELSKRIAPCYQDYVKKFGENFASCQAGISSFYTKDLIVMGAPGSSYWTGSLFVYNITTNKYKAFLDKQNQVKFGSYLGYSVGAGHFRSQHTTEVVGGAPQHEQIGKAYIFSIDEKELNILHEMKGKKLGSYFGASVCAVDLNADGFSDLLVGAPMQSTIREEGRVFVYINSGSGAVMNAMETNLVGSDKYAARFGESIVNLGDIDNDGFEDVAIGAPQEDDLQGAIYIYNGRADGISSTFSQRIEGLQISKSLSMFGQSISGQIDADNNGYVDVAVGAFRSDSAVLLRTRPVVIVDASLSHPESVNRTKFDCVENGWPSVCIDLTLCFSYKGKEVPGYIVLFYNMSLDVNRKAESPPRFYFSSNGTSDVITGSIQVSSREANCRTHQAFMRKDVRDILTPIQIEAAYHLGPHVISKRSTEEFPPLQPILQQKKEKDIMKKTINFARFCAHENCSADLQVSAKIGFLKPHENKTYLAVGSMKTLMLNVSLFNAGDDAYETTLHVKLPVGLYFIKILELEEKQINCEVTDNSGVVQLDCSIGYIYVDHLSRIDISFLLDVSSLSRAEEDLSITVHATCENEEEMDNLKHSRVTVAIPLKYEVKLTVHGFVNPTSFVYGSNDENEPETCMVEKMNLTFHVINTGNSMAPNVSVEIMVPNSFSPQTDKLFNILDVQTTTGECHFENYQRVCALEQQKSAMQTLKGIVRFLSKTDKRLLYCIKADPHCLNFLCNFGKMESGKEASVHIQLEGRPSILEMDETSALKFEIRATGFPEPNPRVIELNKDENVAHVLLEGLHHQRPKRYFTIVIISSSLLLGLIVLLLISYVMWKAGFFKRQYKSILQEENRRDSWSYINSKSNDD
T1 sequence (P05556 21-798, form in doubt, chain 2 of 2): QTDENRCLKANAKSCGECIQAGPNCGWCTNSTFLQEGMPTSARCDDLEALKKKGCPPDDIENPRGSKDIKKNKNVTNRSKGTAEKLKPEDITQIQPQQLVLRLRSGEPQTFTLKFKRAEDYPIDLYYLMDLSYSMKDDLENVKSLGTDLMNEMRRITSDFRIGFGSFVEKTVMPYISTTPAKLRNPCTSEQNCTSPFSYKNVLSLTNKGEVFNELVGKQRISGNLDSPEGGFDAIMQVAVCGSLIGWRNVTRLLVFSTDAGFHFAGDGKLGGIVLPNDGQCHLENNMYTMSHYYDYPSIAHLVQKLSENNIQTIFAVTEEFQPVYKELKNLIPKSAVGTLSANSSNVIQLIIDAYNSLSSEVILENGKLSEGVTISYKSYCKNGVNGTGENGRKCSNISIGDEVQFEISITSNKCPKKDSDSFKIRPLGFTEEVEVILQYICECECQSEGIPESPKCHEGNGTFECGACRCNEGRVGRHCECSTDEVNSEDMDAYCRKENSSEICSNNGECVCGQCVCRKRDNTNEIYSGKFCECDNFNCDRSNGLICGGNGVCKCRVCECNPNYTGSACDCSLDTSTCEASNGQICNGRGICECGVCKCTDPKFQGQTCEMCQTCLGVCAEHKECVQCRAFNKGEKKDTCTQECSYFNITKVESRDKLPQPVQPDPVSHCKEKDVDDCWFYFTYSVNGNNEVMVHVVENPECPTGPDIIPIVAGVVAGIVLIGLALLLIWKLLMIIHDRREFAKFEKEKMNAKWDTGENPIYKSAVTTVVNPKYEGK
Method: In this assay, 1 ug/ml of purified VLA4 (in 50 mM NaHCO₃ buffer (pH 9.2) containing 10 ug/ml BSA) was coated on a 96-well (100 ul/well) Corning Easy-wash plate and incubated overnight at 4° C. Following incubation, the plate was blocked with 150 ul/well of blocking buffer (50 mM Tris-HCl pH7.5, 150 mM NaCl and 2% Dry Milk) for 60 minutes at room temperature. The plated was then washed four times with TBS Washing buffer (50 mM Tris-HCl pH 7.5, 150 mM NaCl, 0.05% Tween-20). Dilutions of each HP1/2 Fab to be tested were prepared in binding buffer (TBS buffer containing 2% Dry Milk) and 100 ul of each dilution was added to the designated wells (100 ul of TBS assay buffer was used as blank control). The plate was then incubated for 60 minutes at room temperature, and then washed four times with TBS Washing buffer. The detection antibody (goat anti-human IgG HRP conjugate) was added at 100 ul/well and the plated was again incubated at room temperature for 60 minutes and washed four times with TBS Washing buffer beforeadding 100 ul/well HRP Substrate buffer and incubating another 30-60 minutes. To stop the reaction, 100 ul of 1 NH2SO4 was added to each well. The plate was read in a Molecular Devices ELISA plate reader at […], and the data was analyzed using Softmax software and EC50 values calculated by GraphPad Prism 4. The EC50 values observed for the test Fab fragments with VH and VL domains are tabulated in […]
B1 showed an EC50 of 0.052 nM. Work on B2 yielded an EC50 of 0.066 nM. B3 gave an EC50 of 0.14 nM. B4 showed an EC50 of 1.1 nM. B5 was tested, and the EC50 was 0.032 nM. Binder B6 has an EC50 of 0.13 nM.
